Residue numbers refer to the chain shown, from its start. One block for each binder: values may come before it.
Assays:
[1] = biological target: the molecule itself; test: crystal structure; hRANKL and mRANK mixed 1:1 in 0.1 M Tris pH 7.0, 10 mg/mL; sitting drop at 294 K, microseeded with crushed mRANKL-mRANK crystals; 2.8 Å, space group P63
[2] = biological target: T1, mouse RANK extracellular domain (mouse, UniProt O35305 31-214); test: SPR; Biacore 3000; NTA sensor chip charged with 0.3 M NiSO4, mRANK (50 nM, 15 ul) loaded; hRANKL or mutants injected at 0, 0.47, 0.94, 1.88, 3.75, 7.5, 15 and 30 nM; BIAevaluation 4.1; conditions: both partners purified
T1 construct: RANK, mouse, extracellular domain (plasmid pET28a-mRANK); also called mRANK; mRANK ectodomain; source: plasmid pET28a-mRANK
T1 sequence (looked up): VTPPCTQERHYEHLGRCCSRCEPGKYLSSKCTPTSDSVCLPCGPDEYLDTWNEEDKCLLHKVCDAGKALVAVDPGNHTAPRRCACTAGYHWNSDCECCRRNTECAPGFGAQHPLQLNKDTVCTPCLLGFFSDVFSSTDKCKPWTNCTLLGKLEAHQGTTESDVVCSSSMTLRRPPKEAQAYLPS

[3] = biological target: the molecule itself; test: cross-linking; DSS to protein 0:1, 5:1, 10:1 and 20:1, in PBS pH 7.3, on ice 1 hour, stopped with 50 mM Tris pH 7.5; SDS-PAGE
[4] = biological target: T2, human RANKL ectodomain (residues 158-317) Arg223Ala (human, UniProt O14788 158-317, Arg223Ala); test: SPR
T2 sequence: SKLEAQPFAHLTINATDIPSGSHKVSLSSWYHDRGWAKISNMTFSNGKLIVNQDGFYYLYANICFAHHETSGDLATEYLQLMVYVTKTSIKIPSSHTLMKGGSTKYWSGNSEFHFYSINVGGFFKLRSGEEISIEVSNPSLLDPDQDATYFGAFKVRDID

[5] = biological target: T3, human RANKL ectodomain (residues 158-317) Asp300Ala (human, UniProt O14788 158-317, Asp300Ala); test: SPR
T3 sequence: T2 sequence with A66R, D143A

[6] = biological target: T4, human RANKL ectodomain (residues 158-317) Arg223Ala plus Asp300Ala (human, UniProt O14788 158-317, Arg223Ala | Asp300Ala); test: SPR
T4 sequence: T2 sequence with D143A

B1: human RANKL ectodomain (residues 158-317), wild type (ligand, UniProt O14788 158-317, looked up)
chain: T2 sequence with A66R
notes: RANKL, human, ectodomain, residues 158-317 (plasmid pGEX-6P-hRANKL); Homotrimer in the crystal structure; also called hRANKL; wild-type hRANKL; source: E. coli BL21, purified (glutathione-Sepharose, PreScission cleavage, Superdex 200); not shown: GST, N-terminal, cleaved
stoichiometry N [1]: 3
Kd [2]: 0.156 nM

B3: human RANKL ectodomain (residues 158-317) Arg223Ala (ligand, UniProt O14788 158-317, looked up)
chain: T2 sequence
notes: RANKL, human, ectodomain, residues 158-317, with Arg223Ala (mutant of pGEX-6P-hRANKL); source: E. coli BL21, purified (glutathione-Sepharose, PreScission cleavage, Superdex 200); not shown: GST, N-terminal, cleaved
fold decrease in affinity against wild-type hRANKL [2]: 20 fold

B4: human RANKL ectodomain (residues 158-317) Arg223Ala plus Asp300Ala (ligand, UniProt O14788 158-317, looked up)
chain: T2 sequence with D143A
notes: RANKL, human, ectodomain, residues 158-317, with Arg223Ala and Asp300Ala (mutant of pGEX-6P-hRANKL); Trimeric by chemical cross-linking; also called hRANKL double-site mutant; source: E. coli BL21, purified (glutathione-Sepharose, PreScission cleavage, Superdex 200); not shown: GST, N-terminal, cleaved
stoichiometry N [3]: 3
fold decrease in affinity against wild-type hRANKL [2]: 260 fold

Now from value to binder:

fold decrease in affinity against wild-type hRANKL [2]: 70 fold
B2: human RANKL ectodomain (residues 158-317) Asp300Ala (ligand, UniProt O14788 158-317, looked up)
chain: T2 sequence with A66R, D143A
notes: RANKL, human, ectodomain, residues 158-317, with Asp300Ala (mutant of pGEX-6P-hRANKL); also called 300 M; source: E. coli BL21, purified (glutathione-Sepharose, PreScission cleavage, Superdex 200); not shown: GST, N-terminal, cleaved

Kd [2]: 0.068 nM
B5: mouse RANKL (ligand)
chain: KPEAQPFAHLTINAASIPSGSHKVTLSSWYHDRGWAKISNMTLSNGKLRVNQDGFYYLYANICFRHHETSGSVPTDYLQLMVYVVKTSIKIPSSHNLMKGGSTKNWSGNSEFHFYSINVGGFFKLRAGEEISIQVSNPSLLDPDQDATYFGAFKVQDID
notes: RANKL, mouse; the text names the ectodomain in general as residues 161-316 of mRANKL; also called mRANKL

Kd [4]: 10.7 nM
Kd [5]: 2.15 nM
Kd [6]: 39.4 nM
B6: mouse RANK extracellular domain (receptor)
chain: T1 sequence (looked up)
